Laboratory results reported in patent US20210238260.

Target: Factor X (FX), P00742
Sequence (P00742 whole entry, looked up): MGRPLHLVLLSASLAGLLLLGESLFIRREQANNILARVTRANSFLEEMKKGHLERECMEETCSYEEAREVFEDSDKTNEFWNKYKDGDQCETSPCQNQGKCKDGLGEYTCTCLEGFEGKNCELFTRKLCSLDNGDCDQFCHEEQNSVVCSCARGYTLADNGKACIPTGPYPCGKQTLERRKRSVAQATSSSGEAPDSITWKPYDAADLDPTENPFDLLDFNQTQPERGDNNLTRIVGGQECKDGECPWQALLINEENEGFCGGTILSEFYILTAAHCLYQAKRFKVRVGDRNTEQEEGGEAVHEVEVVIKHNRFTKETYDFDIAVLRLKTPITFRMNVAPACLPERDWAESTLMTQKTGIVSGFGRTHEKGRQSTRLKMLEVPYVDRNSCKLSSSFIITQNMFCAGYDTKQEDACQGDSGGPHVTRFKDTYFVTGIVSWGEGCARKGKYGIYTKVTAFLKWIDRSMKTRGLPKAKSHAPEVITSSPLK

Protein	KM [µM]	KM (FX activation by FIXa in the Xase complex with FVIIIa, PC/PS vesicles and Ca2+) [µM]
FIXa Y155F/R318Y/R338E/E410N (protein) chain 1: YNSGKLEEFVQGNLERECMEEKCSFEEAREVFENTERTTEFWKQYVDGDQCESNPCLNGGSCKDDINSYECWCPFGFEGKNCELDVTCNIKNGRCEQFCKNSADNKVVCSCTEGYRLAENQKSCEPAVPFPCGRVSVSQTSKLTR chain 2: VVGGEDAKPGQFPWQVVLNGKVDAFCGGSIVNEKWIVTAAHCVETGVKITVVAGEHNIEETEHTEQKRNVIRIIPHHNYNAAINKYNHDIALLELDEPLVLNSYVTPICIADKEYTNIFLKFGSGYVSGWGRVFHKGYSALVLQYLRVPLVDRATCLESTKFTIYNNMFCAGFHEGGRDSCQGDSGGPHVTEVEGTSFLTGIISWGEECAMKGKYGIYTKVSRYVNWIKNKTKLT	0.016	–
FIXa K228N/R318Y/E410N (protein) chain 1: YNSGKLEEFVQGNLERECMEEKCSFEEAREVFENTERTTEFWKQYVDGDQCESNPCLNGGSCKDDINSYECWCPFGFEGKNCELDVTCNIKNGRCEQFCKNSADNKVVCSCTEGYRLAENQKSCEPAVPFPCGRVSVSQTSKLTR chain 2: VVGGEDAKPGQFPWQVVLNGKVDAFCGGSIVNEKWIVTAAHCVETGVNITVVAGEHNIEETEHTEQKRNVIRIIPHHNYNAAINKYNHDIALLELDEPLVLNSYVTPICIADKEYTNIFLKFGSGYVSGWGRVFHKGYSALVLQYLRVPLVDRATCLRSTKFTIYNNMFCAGFHEGGRDSCQGDSGGPHVTEVEGTSFLTGIISWGEECAMKGKYGIYTKVSRYVNWIKNKTKLT	0.042	–
FIXa R318Y/R403E/E410N (protein) chain 1: YNSGKLEEFVQGNLERECMEEKCSFEEAREVFENTERTTEFWKQYVDGDQCESNPCLNGGSCKDDINSYECWCPFGFEGKNCELDVTCNIKNGRCEQFCKNSADNKVVCSCTEGYRLAENQKSCEPAVPFPCGRVSVSQTSKLTR chain 2: VVGGEDAKPGQFPWQVVLNGKVDAFCGGSIVNEKWIVTAAHCVETGVKITVVAGEHNIEETEHTEQKRNVIRIIPHHNYNAAINKYNHDIALLELDEPLVLNSYVTPICIADKEYTNIFLKFGSGYVSGWGRVFHKGYSALVLQYLRVPLVDRATCLRSTKFTIYNNMFCAGFHEGGRDSCQGDSGGPHVTEVEGTSFLTGIISWGEECAMKGKYGIYTKVSEYVNWIKNKTKLT	0.0942	–
FIXa Y155F/R318Y/R403E/E410N (protein) chain 1: YNSGKLEEFVQGNLERECMEEKCSFEEAREVFENTERTTEFWKQYVDGDQCESNPCLNGGSCKDDINSYECWCPFGFEGKNCELDVTCNIKNGRCEQFCKNSADNKVVCSCTEGYRLAENQKSCEPAVPFPCGRVSVSQTSKLTR chain 2: VVGGEDAKPGQFPWQVVLNGKVDAFCGGSIVNEKWIVTAAHCVETGVKITVVAGEHNIEETEHTEQKRNVIRIIPHHNYNAAINKYNHDIALLELDEPLVLNSYVTPICIADKEYTNIFLKFGSGYVSGWGRVFHKGYSALVLQYLRVPLVDRATCLRSTKFTIYNNMFCAGFHEGGRDSCQGDSGGPHVTEVEGTSFLTGIISWGEECAMKGKYGIYTKVSEYVNWIKNKTKLT	0.111	–
FIXa R318Y/R338E/R403E/E410N (protein) chain 1: YNSGKLEEFVQGNLERECMEEKCSFEEAREVFENTERTTEFWKQYVDGDQCESNPCLNGGSCKDDINSYECWCPFGFEGKNCELDVTCNIKNGRCEQFCKNSADNKVVCSCTEGYRLAENQKSCEPAVPFPCGRVSVSQTSKLTR chain 2: VVGGEDAKPGQFPWQVVLNGKVDAFCGGSIVNEKWIVTAAHCVETGVKITVVAGEHNIEETEHTEQKRNVIRIIPHHNYNAAINKYNHDIALLELDEPLVLNSYVTPICIADKEYTNIFLKFGSGYVSGWGRVFHKGYSALVLQYLRVPLVDRATCLESTKFTIYNNMFCAGFHEGGRDSCQGDSGGPHVTEVEGTSFLTGIISWGEECAMKGKYGIYTKVSEYVNWIKNKTKLT	0.0432	–
FIXa Y259F/K265T/Y345T (protein) chain 1: YNSGKLEEFVQGNLERECMEEKCSFEEAREVFENTERTTEFWKQYVDGDQCESNPCLNGGSCKDDINSYECWCPFGFEGKNCELDVTCNIKNGRCEQFCKNSADNKVVCSCTEGYRLAENQKSCEPAVPFPCGRVSVSQTSKLTR chain 2: VVGGEDAKPGQFPWQVVLNGKVDAFCGGSIVNEKWIVTAAHCVETGVKITVVAGEHNIEETEHTEQKRNVIRIIPHHNFNAAINTYNHDIALLELDEPLVLNSYVTPICIADKEYTNIFLKFGSGYVSGWGRVFHKGRSALVLQYLRVPLVDRATCLRSTKFTITNNMFCAGFHEGGRDSCQGDSGGPHVTEVEGTSFLTGIISWGEECAMKGKYGIYTKVSRYVNWIKEKTKLT	–	0.0309
FIXa K228N/R318Y/R338E/R403E/E410N (protein) chain 1: YNSGKLEEFVQGNLERECMEEKCSFEEAREVFENTERTTEFWKQYVDGDQCESNPCLNGGSCKDDINSYECWCPFGFEGKNCELDVTCNIKNGRCEQFCKNSADNKVVCSCTEGYRLAENQKSCEPAVPFPCGRVSVSQTSKLTR chain 2: VVGGEDAKPGQFPWQVVLNGKVDAFCGGSIVNEKWIVTAAHCVETGVNITVVAGEHNIEETEHTEQKRNVIRIIPHHNYNAAINKYNHDIALLELDEPLVLNSYVTPICIADKEYTNIFLKFGSGYVSGWGRVFHKGYSALVLQYLRVPLVDRATCLESTKFTIYNNMFCAGFHEGGRDSCQGDSGGPHVTEVEGTSFLTGIISWGEECAMKGKYGIYTKVSEYVNWIKNKTKLT	–	0.0361
FIXa Y155F/K228N/R318Y/R338E/R403E/E410N (protein) chain 1: YNSGKLEEFVQGNLERECMEEKCSFEEAREVFENTERTTEFWKQYVDGDQCESNPCLNGGSCKDDINSYECWCPFGFEGKNCELDVTCNIKNGRCEQFCKNSADNKVVCSCTEGYRLAENQKSCEPAVPFPCGRVSVSQTSKLTR chain 2: VVGGEDAKPGQFPWQVVLNGKVDAFCGGSIVNEKWIVTAAHCVETGVNITVVAGEHNIEETEHTEQKRNVIRIIPHHNYNAAINKYNHDIALLELDEPLVLNSYVTPICIADKEYTNIFLKFGSGYVSGWGRVFHKGYSALVLQYLRVPLVDRATCLESTKFTIYNNMFCAGFHEGGRDSCQGDSGGPHVTEVEGTSFLTGIISWGEECAMKGKYGIYTKVSEYVNWIKNKTKLT	–	0.0408
FIXa D85N/K228N/R318Y/R338E/R403E/E410N (protein) chain 1: YNSGKLEEFVQGNLERECMEEKCSFEEAREVFENTERTTEFWKQYVDGDQCESNPCLNGGSCKDDINSYECWCPFGFEGKNCELNVTCNIKNGRCEQFCKNSADNKVVCSCTEGYRLAENQKSCEPAVPFPCGRVSVSQTSKLTR chain 2: VVGGEDAKPGQFPWQVVLNGKVDAFCGGSIVNEKWIVTAAHCVETGVNITVVAGEHNIEETEHTEQKRNVIRIIPHHNYNAAINKYNHDIALLELDEPLVLNSYVTPICIADKEYTNIFLKFGSGYVSGWGRVFHKGYSALVLQYLRVPLVDRATCLESTKFTIYNNMFCAGFHEGGRDSCQGDSGGPHVTEVEGTSFLTGIISWGEECAMKGKYGIYTKVSEYVNWIKNKTKLT	–	0.0393
FIXa I251S/R318Y/R338E/R403E/E410N (protein) chain 1: YNSGKLEEFVQGNLERECMEEKCSFEEAREVFENTERTTEFWKQYVDGDQCESNPCLNGGSCKDDINSYECWCPFGFEGKNCELDVTCNIKNGRCEQFCKNSADNKVVCSCTEGYRLAENQKSCEPAVPFPCGRVSVSQTSKLTR chain 2: VVGGEDAKPGQFPWQVVLNGKVDAFCGGSIVNEKWIVTAAHCVETGVKITVVAGEHNIEETEHTEQKRNVSRIIPHHNYNAAINKYNHDIALLELDEPLVLNSYVTPICIADKEYTNIFLKFGSGYVSGWGRVFHKGYSALVLQYLRVPLVDRATCLESTKFTIYNNMFCAGFHEGGRDSCQGDSGGPHVTEVEGTSFLTGIISWGEECAMKGKYGIYTKVSEYVNWIKNKTKLT	–	0.0334
FIXa Y155F/I251S/R318Y/R338E/R403E/E410N (protein) chain 1: YNSGKLEEFVQGNLERECMEEKCSFEEAREVFENTERTTEFWKQYVDGDQCESNPCLNGGSCKDDINSYECWCPFGFEGKNCELDVTCNIKNGRCEQFCKNSADNKVVCSCTEGYRLAENQKSCEPAVPFPCGRVSVSQTSKLTR chain 2: VVGGEDAKPGQFPWQVVLNGKVDAFCGGSIVNEKWIVTAAHCVETGVKITVVAGEHNIEETEHTEQKRNVSRIIPHHNYNAAINKYNHDIALLELDEPLVLNSYVTPICIADKEYTNIFLKFGSGYVSGWGRVFHKGYSALVLQYLRVPLVDRATCLESTKFTIYNNMFCAGFHEGGRDSCQGDSGGPHVTEVEGTSFLTGIISWGEECAMKGKYGIYTKVSEYVNWIKNKTKLT	–	0.0433
FIXa I251S/R318Y/R338E/E410N (protein) chain 1: YNSGKLEEFVQGNLERECMEEKCSFEEAREVFENTERTTEFWKQYVDGDQCESNPCLNGGSCKDDINSYECWCPFGFEGKNCELDVTCNIKNGRCEQFCKNSADNKVVCSCTEGYRLAENQKSCEPAVPFPCGRVSVSQTSKLTR chain 2: VVGGEDAKPGQFPWQVVLNGKVDAFCGGSIVNEKWIVTAAHCVETGVKITVVAGEHNIEETEHTEQKRNVSRIIPHHNYNAAINKYNHDIALLELDEPLVLNSYVTPICIADKEYTNIFLKFGSGYVSGWGRVFHKGYSALVLQYLRVPLVDRATCLESTKFTIYNNMFCAGFHEGGRDSCQGDSGGPHVTEVEGTSFLTGIISWGEECAMKGKYGIYTKVSRYVNWIKNKTKLT	–	0.0161
FIXa D104N/K106S/I251S/R318Y/R338E/E410N (protein) chain 1: YNSGKLEEFVQGNLERECMEEKCSFEEAREVFENTERTTEFWKQYVDGDQCESNPCLNGGSCKDDINSYECWCPFGFEGKNCELDVTCNIKNGRCEQFCKNSANNSVVCSCTEGYRLAENQKSCEPAVPFPCGRVSVSQTSKLTR chain 2: VVGGEDAKPGQFPWQVVLNGKVDAFCGGSIVNEKWIVTAAHCVETGVKITVVAGEHNIEETEHTEQKRNVSRIIPHHNYNAAINKYNHDIALLELDEPLVLNSYVTPICIADKEYTNIFLKFGSGYVSGWGRVFHKGYSALVLQYLRVPLVDRATCLESTKFTIYNNMFCAGFHEGGRDSCQGDSGGPHVTEVEGTSFLTGIISWGEECAMKGKYGIYTKVSRYVNWIKNKTKLT	–	0.0243
FIXa K247N/N249S/R318Y/R338E/R403E/E410N (protein) chain 1: YNSGKLEEFVQGNLERECMEEKCSFEEAREVFENTERTTEFWKQYVDGDQCESNPCLNGGSCKDDINSYECWCPFGFEGKNCELDVTCNIKNGRCEQFCKNSADNKVVCSCTEGYRLAENQKSCEPAVPFPCGRVSVSQTSKLTR chain 2: VVGGEDAKPGQFPWQVVLNGKVDAFCGGSIVNEKWIVTAAHCVETGVKITVVAGEHNIEETEHTEQNRSVIRIIPHHNYNAAINKYNHDIALLELDEPLVLNSYVTPICIADKEYTNIFLKFGSGYVSGWGRVFHKGYSALVLQYLRVPLVDRATCLESTKFTIYNNMFCAGFHEGGRDSCQGDSGGPHVTEVEGTSFLTGIISWGEECAMKGKYGIYTKVSEYVNWIKNKTKLT	–	0.0392
